The results in this text go back to patent publication US20140179896A1 (published 2014).

B1: M5FL-PEG40 (designed binder)
chain: MGVSDVPRDLEVVAATPTSLLISWRHPHFPTRYYRITYGETGGNSPVQEFTVPLQPPLATISGLKPGVDYTITVYAVTKERNGRELFTPISINYRTEIDKPCQHHHHHH
modifications: branched 40 kD PEG coupled by maleimide chemistry to the cysteine residue at position 100
notes: also called M5FL 40K PEG
B2: E5 (designed binder)
chain: EVVAATPTSLLISWRHPHFPTRYYRITYGETGGNSPVQEFTVPLQPPTATISGLKPGVDYTITGYAVTDGQNGRLLNVPISINYRT
notes: Del 1-8 10Fn3 clone; Flag tag of the radioactive-assay form not included
B3: E28 (designed binder)
chain: B2 chain with D69L, G70E, Q71R, L75E, N77M
notes: as for B2
B4: E3 (designed binder)
chain: B2 chain with Q71R, G73D, L75K, N77M
notes: as for B2
B5: E25 (designed binder)
chain: B2 chain with D69L, G70E, Q71R, L75E, N77M, V78T
notes: as for B2
B6: E9 (designed binder)
chain: B2 chain with D69E, G70E, Q71R, L75T, N77R, V78T
notes: as for B2
B7: E19 (designed binder)
chain: B2 chain with D69V, G70E, Q71R, L75H, N77M, V78T
notes: 10Fn3 clone, Del 1-8
B8: E25 (designed binder)
chain: B2 chain with D69L, G70E, Q71R, L75E, N77M, V78T
notes: 10Fn3 clone, Del 1-8
B9: E9 (designed binder)
chain: B2 chain with D69E, G70E, Q71R, L75T, N77R, V78T
notes: 10Fn3 clone, Del 1-8
B10: E6 (designed binder)
chain: B2 chain with Q71W, N77S, V78I
notes: 10Fn3 clone, Del 1-8
B11: E29 (designed binder)
chain: B2 chain with D69V, G70E, Q71R, L75V, N77M, V78T
notes: 10Fn3 clone, Del 1-8
B12: E18 (designed binder)
chain: B2 chain with D69V, G70E, Q71R, L75E, V78T
notes: 10Fn3 clone, Del 1-8
B13: E28 (designed binder)
chain: B2 chain with D69L, G70E, Q71R, L75E, N77M
notes: 10Fn3 clone, Del 1-8
B14: M3 (designed binder)
chain: VSDVPRDLEVVAATPTSLLISWRHPHFPTRYYRITYGETGGNSPVQEFTVPLQPPAATISGLKPGVDYTITGYAVTKERNGRELFTPISINYRT
notes: 10Fn3 clone with WT N-terminus; Tags not included
B15: M4 (designed binder)
chain: B14 chain with R30H, K77T, N80T
notes: as for B14
B16: M2 (designed binder)
chain: B14 chain with K77W
notes: as for B14
B17: M6 (designed binder)
chain: B14 chain with R30H, K77L, N80D
notes: as for B14
B18: M1 (designed binder)
chain: B14 chain with P55T, A56V, K77L, G81D
notes: as for B14
B19: K1 (designed binder)
chain: B2 chain with D69M, Q71L, N72Y, R74H, L75E, N77L, V78T
notes: tag left out
B20: K14 (designed binder)
chain: B2 chain with D69R, G70E, Q71E, G73D, R74H, L75E, N77L, V78I
notes: tag left out
B21: K15 (designed binder)
chain: B2 chain with D69E, G70V, Q71H, N72H, G73D, L75E, L76I, N77K, V78T
notes: tag left out
B22: K13 (designed binder)
chain: B2 chain with D69L, G70A, Q71L, N72K, R74H, L75E, N77L, V78T
notes: tag left out
B23: K9 (designed binder)
chain: B2 chain with D69F, Q71L, N72Y, R74K, L75E, N77L, V78I
notes: tag left out
B24: K10 (designed binder)
chain: B2 chain with D69T, Q71P, G73D, N77F
notes: tag left out
B25: K6 (designed binder)
chain: B2 chain with Q71K, N72D, L75V, N77L, V78T
notes: tag left out
B26: K12 (designed binder)
chain: B2 chain with G70V, Q71Y, G73D, R74H, L75E, L76I, N77K, V78T
notes: tag left out

Numbering of substitutions follows the chain as printed.

In the first experiment the target is T1, mouse vascular endothelial growth factor receptor-2 Fc chimera (Flk-1-Fc) (mouse, UniProt P35918 20-762).
T1 construct: purchased from R&D Systems; also called mouse VEGF-R2-Fc; not shown: Fc part of the purchased chimera
In words: SPR (BIAcore), target immobilized. How it is done:
In vitro affinity measurements were made using surface plasmon resonance (SPR) (BIAcore) with both the human and mouse VEGF-receptor target proteins immobilized via amide chemistry on the BIAcore chip.
The binding kinetics of fibronectin-based scaffold proteins binding proteins to the target was measured using BIAcore 2000 biosensor (Pharmacia Biosensor). Human and mouse VEGF-R2-Fc fusions were immobilized onto a CM5 sensor chip and soluble binding proteins were injected at concentrations ranging from 0 to 100 nM in buffer 0 (10 mM HEPES, 150 mM NaCl, 0.005% Tween 20, pH 7.4). Sensorgrams were obtained at each concentration and were evaluated using a program, BIA Evaluation 2.0 (BIAcore), to determine the rate constants kₐ (kₒₙ) and kd (koff.) The affinity constant, KD was calculated from the ratio of rate constants […].
In general terms: SPR reads the build-up and loss of mass on a sensor chip optically.
T1 sequence (P35918 20-762, change not shown): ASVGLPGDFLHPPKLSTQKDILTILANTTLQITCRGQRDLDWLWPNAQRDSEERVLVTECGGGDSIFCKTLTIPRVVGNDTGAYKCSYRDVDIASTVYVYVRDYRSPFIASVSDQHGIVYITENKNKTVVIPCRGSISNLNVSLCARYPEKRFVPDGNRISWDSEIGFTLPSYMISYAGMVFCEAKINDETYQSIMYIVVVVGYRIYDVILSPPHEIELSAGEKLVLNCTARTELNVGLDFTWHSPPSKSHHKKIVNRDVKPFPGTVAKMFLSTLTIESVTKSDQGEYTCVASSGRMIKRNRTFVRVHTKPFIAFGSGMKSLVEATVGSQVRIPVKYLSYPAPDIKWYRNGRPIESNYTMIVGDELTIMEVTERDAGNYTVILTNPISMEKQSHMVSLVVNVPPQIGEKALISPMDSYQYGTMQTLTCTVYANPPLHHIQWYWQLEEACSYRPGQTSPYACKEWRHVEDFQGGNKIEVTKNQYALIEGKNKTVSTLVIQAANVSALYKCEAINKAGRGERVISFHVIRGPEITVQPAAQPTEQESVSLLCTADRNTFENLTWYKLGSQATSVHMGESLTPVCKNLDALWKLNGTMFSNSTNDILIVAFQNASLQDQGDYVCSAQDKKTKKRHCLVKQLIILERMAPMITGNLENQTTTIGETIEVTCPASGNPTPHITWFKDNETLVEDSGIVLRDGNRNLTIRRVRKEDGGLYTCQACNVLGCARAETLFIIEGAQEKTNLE
The Kd is the free concentration of one partner at which half of the binding sites on the other are occupied at equilibrium, for simple one-to-one binding. In general, koff refers to a measure of how fast the partners let go of each other. The kon is a measure of how fast the partners come together. Low values mean slow association, high ones fast association. As for B1, the Kd was determined as 57.1 nM, the koff was 0.00054 s⁻¹ and the kon is 10000 M⁻¹ s⁻¹.

The target in another experiment is T2, human vascular endothelial growth factor receptor-2 Fc chimera (KDR-Fc) (human, UniProt P35968 20-764).
T2 construct: range 1-764; also called human VEGFR-2; hKDR; not shown: human IgG1 Fc
The experiment can be described thus: binding to 1 nM KDR-Fc, % of input; radioactive equilibrium binding (assay not given). How it is done: (§1) To prepare ³⁵S-labeled binding proteins for analysis, mRNA was prepared as described above for RNA-protein fusion production but the linker ligation step was omitted. The mRNA was expressed using rabbit reticulocyte lysate translation kit (Ambion) in the presence of ³⁵S-labeled Met at 30° C. for 1 hour. Expressed protein was purified on M2-agarose Flag beads (Sigma) as described above. This procedure produced the encoded protein without the nucleic acid tail. In a direct binding assay, VEGF-R2-Fc fusions in concentrations ranging from 0 to 200 nM were added to a constant concentration of the purified protein (0.2 or 0.5 nM) and incubated at 30° C. for 1 hour in buffer B. The receptor-binder complexes were captured using Protein A magnetic beads for another 10 minutes at room temperature using a Kingfisher™ The beads were washed with six reaction volumes of buffer B. The protein was eluted from the beads with 100 μL of 0.1 M KOH. […] of the reaction mixture and elution were dried onto a LumaPlate-96 (Packard) and the amount of ³⁵S on the plate was measured using a TopCount NXT instrument (Packard). The amount of fibronectin-based scaffold protein bound to the target was estimated as a percent of radioactivity eluted from Protein A magnetic beads compare to radioactivity in the reaction mixture. Nonspecific binding of fibronectin-based scaffold proteins to the beads was determined by measuring binding in the absence of KDR-Fc and represented less than 1-2% of the input. Specific binding was obtained through subtraction of nonspecific binding from total binding. Data was analyzed using the GraphPad Prizm software (GraphPad Software, Inc, San Diego, Calif.), fitted using a one site, non-linear binding equation.
T2 sequence (P35968 20-764 limits assumed, change not shown, form in doubt): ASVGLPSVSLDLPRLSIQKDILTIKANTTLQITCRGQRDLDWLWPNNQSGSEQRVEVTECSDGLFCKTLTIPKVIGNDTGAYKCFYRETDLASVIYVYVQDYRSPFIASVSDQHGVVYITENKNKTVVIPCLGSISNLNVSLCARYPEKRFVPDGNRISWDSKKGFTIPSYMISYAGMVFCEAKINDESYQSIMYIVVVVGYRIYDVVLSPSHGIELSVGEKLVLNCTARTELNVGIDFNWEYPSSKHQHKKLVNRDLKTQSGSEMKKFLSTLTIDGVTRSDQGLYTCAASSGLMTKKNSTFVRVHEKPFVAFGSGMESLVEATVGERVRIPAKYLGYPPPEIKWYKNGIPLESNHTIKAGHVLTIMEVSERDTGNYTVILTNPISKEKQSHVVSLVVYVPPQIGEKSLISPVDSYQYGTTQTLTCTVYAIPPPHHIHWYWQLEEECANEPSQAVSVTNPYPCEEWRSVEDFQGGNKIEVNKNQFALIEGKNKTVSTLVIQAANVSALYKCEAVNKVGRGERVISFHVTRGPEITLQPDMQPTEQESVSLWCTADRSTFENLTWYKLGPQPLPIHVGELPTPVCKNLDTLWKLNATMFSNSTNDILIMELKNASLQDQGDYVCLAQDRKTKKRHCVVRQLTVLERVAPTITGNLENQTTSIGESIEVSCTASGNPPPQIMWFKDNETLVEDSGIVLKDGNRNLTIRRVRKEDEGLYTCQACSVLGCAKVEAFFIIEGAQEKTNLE
Turning to B2, the “Binding to 1 nM KDR, %” value was 26%.
For the molecule B3, the “Binding to 1 nM KDR, %” value was 19%.
On the same count and under the same terms, under B4 stands 37%; under B5, 41%.
Same read-out and setting: under B6 stands 24%.

The target of another experiment is T3, mouse vascular endothelial growth factor receptor-2 Fc chimera (Flk-1-Fc) (mouse, UniProt P35918 20-762).
T3 construct: Bought from R&D Systems; also called mouse VEGFR-2; not shown: Fc part of the purchased chimera, not specified
In words: radioactive equilibrium binding assay, Flk-1-Fc. How it is done: as §1
T3 sequence (P35918 20-762, change not shown): as the sequence (P35918 20-762, change not shown) above
Regarding B7, the Kd is 0.66 nM.
In the case of B8, the Kd was 1.3 nM.
Still for that read-out and setting: under B9 stands 1.4 nM; under B10, 7.1 nM.
The same measure, in the same setting: in the case of B11 it was 0.91 nM; in that of B12, 0.53 nM.
The same measure, in the same setting: in the case of B13 it was 2.1 nM.

The target of another experiment is T4, mouse vascular endothelial growth factor receptor-2 Fc chimera (Flk-1-Fc) (mouse, UniProt P35918 20-762).
T4 construct: Purchased from R&D Systems; also called mouse VEGF-R2; not shown: Fc part of the purchased chimera
In words: clones from the 159Q(8)L library; binding per FIG. 4. The method, then:
as §1
T4 sequence (P35918 20-762, change not shown): as above
For B14, the binding result was “binds”.
On to B15, for which the binding result is listed as “binds”.
Still for that read-out and setting: in the case of B16 it was “binds”.
On to B17, for which the binding result is “binds”.
As to B18, the binding result was “binds”.

A further experiment concerns the target T5, human vascular endothelial growth factor receptor-2 Fc chimera (KDR-Fc) (human, UniProt P35968 20-764).
T5 construct: range 1-764; purchased from R&D Systems; also called hKDR; human VEGF-R2-Fc; not shown: human IgG1 Fc
The experiment can be described thus: radioactive equilibrium binding assay, KDR-Fc. The method, then: as §1
T5 sequence (P35968 20-764 limits assumed, change not shown, form in doubt): as the sequence (P35968 20-764 limits assumed, change not shown, form in doubt) above
As for B19, the Kd was less than 0.6 nM.
The same measure, in the same setting: under B20 stands less than 0.6 nM.
Regarding B21, the Kd is less than 0.4 nM.
For B22, the Kd was less than 0.6 nM.
Same read-out and setting: under B23 stands less than 1.8 nM; under B24, less than 0.6 nM.
The same measure, in the same setting: in the case of B25 it was less than 0.9 nM; in that of B26, less than 0.6 nM.

The next experiment addresses T6, human vascular endothelial growth factor receptor-2 Fc chimera (KDR-Fc) (human, UniProt P35968 20-764).
T6 construct: range 1-764; also called human VEGFR-2; not shown: human IgG1 Fc
The experiment can be described thus: radioactive equilibrium binding assay, KDR-Fc. How it is done:
as §1
T6 sequence (P35968 20-764 limits assumed, change not shown, form in doubt): as above
Regarding B7, the Kd was 1.3 nM.
On the same count and under the same terms, in the case of B8 it was 1.58 nM; in that of B9, 2.37 nM; in that of B10, 0.35 nM.
On the same count and under the same terms, in the case of B11 it was 1.51 nM; in that of B12, 1.2 nM; in that of B13, 1.63 nM.

The target in the next experiment is T4, mouse vascular endothelial growth …. The experiment can be described thus: binding to 1 nM Flk-1-Fc, % of input; radioactive equilibrium binding (assay not given). How it is done: as §1
As for B2, the “Binding to 1 nM FLK, %” value was 10%.
Same read-out and setting: under B3 stands 21%; under B4, 14%; under B5, 28%.
In the case of B6, the “Binding to 1 nM FLK, %” value came out at 34%.

Another experiment has as its target T6, human vascular endothelial growth …. In words: radioactive equilibrium binding assay, 1 nM KDR-Fc, % of input bound. In short, it runs like this: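 ³⁵S-Met-labeled binder protein, made by reticulocyte-lysate translation and Flag-purified, held at 0.2 or 0.5 nM with receptor-Fc (0–200 nM) for 1 h at 30° C in buffer B. Complexes captured on Protein A beads, washed, KOH-eluted. Bound signal given as % of input radioactivity minus bead-only background; one-site fit.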
As for B7, the “Binding to 1 nM KDR, %” value amounted to 38%.
As for B8, the “Binding to 1 nM KDR, %” value was 41%.
Regarding B9, the “Binding to 1 nM KDR, %” value amounted to 24%.
The same measure, in the same setting: in the case of B10 it was 36%; in that of B11, 41%.
Still for that read-out and setting: under B12 stands 17%; under B13, 19%.

Another experiment deals with T3, mouse vascular endothelial growth …. In words: radioactive equilibrium binding assay, 1 nM Flk-1-Fc, % of input bound. In short, it runs like this:
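³⁵S-Met-labeled fibronectin-scaffold binders, made by reticulocyte lysate translation (30° C, 1 h) and Flag-purified, were held at 0.2 or 0.5 nM and incubated with 0–200 nM VEGF-R2-Fc for 1 h at 30° C in buffer B. Complexes were captured on Protein A magnetic beads, washed, KOH-eluted and counted.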
Take B7: the “Binding to 1 nM Flk-1, %” value stood at 40%.
Same read-out and setting: in the case of B8 it was 28%.
Turning to B9, the “Binding to 1 nM Flk-1, %” value is 34%.
Still for that read-out and setting: in the case of B10 it was 7%.
Consider B11, for which the “Binding to 1 nM Flk-1, %” value is 44%.
Same read-out and setting: in the case of B12 it was 29%; in that of B13, 21%.

The next experiment deals with T2, human vascular endothelial growth …. The experiment can be described thus: radioactive equilibrium binding (assay not given). How it is done: as §1
As to B2, the Kd was 0.4 nM.
Still for that read-out and setting: in the case of B3 it was 1.63 nM; in that of B4, 0.96 nM; in that of B5, 1.58 nM.
As to B6, the Kd stood at 2.37 nM.

A further experiment addresses T4, mouse vascular endothelial growth …. The experiment can be described thus: radioactive equilibrium binding (assay not given). How it is done: as §1
B2: the Kd worked out at 3.2 nM.
On the same count and under the same terms, in the case of B3 it was 2.1 nM; in that of B4, 5.4 nM; in that of B5, 1.3 nM.
For B6, the Kd came to 1.4 nM.
